# Experimental data published in US6537804B1, “BCR-ABL directed compositions and uses for inhibiting Philadelphia chromesome stimulated cell growth” (Board of Regents, The University of Texas Systems, priority 1995, dated 2003).
# Non-standard residues stand in square brackets, D forms with d. No end group written: not given here. pS = N[C@@H](COP(=O)(O)O)C(=O)O
# B1: Bcr fragment (64-413): Bcr sequences from amino acid 64 to 413 with both A and B serine-rich boxes, expressed in COS-1 cells (protein)
# chain: AKEKKSYDRQRWGFRRAAQAPDGASEPRASASRPQPAPADGADPPPAEEPEARPDGEGSPGKARPGTARRPGAAASGERDDRGPPASVAALRSNFERIRKGHGQPGADAEKPFYVNVEFHHERGLVKVNDKEVSDRISSLGSQAMQMERKKSQHGAGSSVGDASRPPYRGRSSESSCGVDGDYEDAELNPRFLKDNLIDANGGSRPPWPPLEYQPYQSIYVGGMMEGEGKGPLLRSQSTSEQEKRLTWPRRSYSPRSFEDCGGGYTPDCSSNENLTSSEEDFSSGQSSRVSPSPTTYRMFRDKSRSPSQNSQQSFDSSSPPTPQCHKRHRHCPVVVSEATIVGVRKTGQI
# B2: Bcr Y283F: P160 BCR with tyrosine 283 to phenylalanine mutation (protein, UniProt P11274 1-1271, looked up, variant Y283F)
# Breakpoint cluster region …: MVDPVGFAEAWKAQFPDSEPPRMELRSVGDIEQELERCKASIRRLEQEVNQERFRMIYLQTLLAKEKKSYDRQRWGFRRAAQAPDGASEPRASASRPQPAPADGADPPPAEEPEARPDGEGSPGKARPGTARRPGAAASGERDDRGPPASVAALRSNFERIRKGHGQPGADAEKPFYVNVEFHHERGLVKVNDKEVSDRISSLGSQAMQMERKKSQHGAGSSVGDASRPPYRGRSSESSCGVDGDYEDAELNPRFLKDNLIDANGGSRPPWPPLEYQPYQSIFVGGMMEGEGKGPLLRSQSTSEQEKRLTWPRRSYSPRSFEDCGGGYTPDCSSNENLTSSEEDFSSGQSSRVSPSPTTYRMFRDKSRSPSQNSQQSFDSSSPPTPQCHKRHRHCPVVVSEATIVGVRKTGQIWPNDGEGAFHGDADGSFGTPPGYGCAADRAEEQRRHQDGLPYIDDSPSSSPHLSSKGRGSRDALVSGALESTKASELDLEKGLEMRKWVLSGILASEETYLSHLEALLLPMKPLKAAATTSQPVLTSQQIETIFFKVPELYEIHKEFYDGLFPRVQQWSHQQRVGDLFQKLASQLGVYRAFVDNYGVAMEMAEKCCQANAQFAEISENLRARSNKDAKDPTTKNSLETLLYKPVDRVTRSTLVLHDLLKHTPASHPDHPLLQDALRISQNFLSSINEEITPRRQSMTVKKGEHRQLLKDSFMVELVEGARKLRHVFLFTDLLLCTKLKKQSGGKTQQYDCKWYIPLTDLSFQMVDELEAVPNIPLVPDEELDALKIKISQIKNDIQREKRANKGSKATERLKKKLSEQESLLLLMSPSMAFRVHSRNGKSYTFLISSDYERAEWRENIREQQKKCFRSFSLTSVELQMLTNSCVKLQTVHSIPLTINKEDDESPGLYGFLNVIVHSATGFKQSSNLYCTLEVDSFGYFVNKAKTRVYRDTAEPNWNEEFEIELEGSQTLRILCYEKCYNKTKIPKEDGESTDRLMGKGQVQLDPQALQDRDWQRTVIAMNGIEVKLSVKFNSREFSLKRMPSRKQTGVFGVKIAVVTKRERSKVPYIVRQCVEEIERRGMEEVGIYRVSGVATDIQALKAAFDVNNKDVSVMMSEMDVNAIAGTLKLYFRELPEPLFTDEFYPNFAEGIALSDPVAKESCMLNLLLSLPEANLLTFLFLLDHLKRVAEKEAVNKMSLHNLATVFGPTLLRPSEKESKLPANPSQPITMTDSWSLEVMSQVQVLLYFLQLEAIPAPDSKRQSILFSTEV
# B3: Bcr221: amino acids 1-221 of Bcr, N-terminal fragment (protein)
# chain: MVDPVGFAEAWKAQFPDSEPPRMELRSVGDIEQELERCKASIRRLEQEVNQERFRMIYLQTLLAKEKKSYDRQRWGFRRAAQAPDGASEPRASASRPQPAPADGADPPPAEEPEARPDGEGSPGKARPGTARRPGAAASGERDDRGPPASVAALRSNFERIRKGHGQPGADAEKPFYVNVEFHHERGLVKVNDKEVSDRISSLGSQAMQMERKKSQHGAGS
# B4: Bcr413: amino acids 1-413 of Bcr, N-terminal fragment (protein)
# chain: MVDPVGFAEAWKAQFPDSEPPRMELRSVGDIEQELERCKASIRRLEQEVNQERFRMIYLQTLLAKEKKSYDRQRWGFRRAAQAPDGASEPRASASRPQPAPADGADPPPAEEPEARPDGEGSPGKARPGTARRPGAAASGERDDRGPPASVAALRSNFERIRKGHGQPGADAEKPFYVNVEFHHERGLVKVNDKEVSDRISSLGSQAMQMERKKSQHGAGSSVGDASRPPYRGRSSESSCGVDGDYEDAELNPRFLKDNLIDANGGSRPPWPPLEYQPYQSIYVGGMMEGEGKGPLLRSQSTSEQEKRLTWPRRSYSPRSFEDCGGGYTPDCSSNENLTSSEEDFSSGQSSRVSPSPTTYRMFRDKSRSPSQNSQQSFDSSSPPTPQCHKRHRHCPVVVSEATIVGVRKTGQI
# B5: Bcr159: amino acids 1-159 of Bcr, N-terminal fragment (protein)
# chain: MVDPVGFAEAWKAQFPDSEPPRMELRSVGDIEQELERCKASIRRLEQEVNQERFRMIYLQTLLAKEKKSYDRQRWGFRRAAQAPDGASEPRASASRPQPAPADGADPPPAEEPEARPDGEGSPGKARPGTARRPGAAASGERDDRGPPASVAALRSNFE
# Assays:
# P185 BCR-ABL = target: T1, P185 BCR-ABL (Homo sapiens, UniProt P00519+P11274); test: Bcr-Abl autokinase (immune complex kinase) assay; assay type: biochemical; details: for Inhibition of Bcr-Abl tyrosine kinase activity (autophosphorylation): 50 μg of peptide added to P185 BCR-ABL immune complexes from SUP B15 cells
# T1 construct: endogenous in cells; host or cells: SUP-B15 (Ph1-positive ALL cell line)
# Protocol: FIG. 21. Phosphoserine Bcr peptide pS354 S17K (SEQ ID NO:22) inhibits the Bcr-Abl tyrosine kinase activity. The SUP B15 cell line derived from a patient with Bcr-Abl-positive acute lymphocytic leukemia (ALL) were grown in culture; cells were lysed and the Bcr-Abl oncoprotein immunoprecipitated with a monoclonal antibody p6D (anti-Abl 51-64). The immune complexes were mixed with either no peptide or 50 μg of peptide prior to addition of the kinase activating buffer containing [γ-^32P]ATP. After the assay was completed, the proteins were fractionated by SDS gel electrophoresis. Radioactive proteins were detected by phosphoimage analysis. Lane 1, no peptide; lane 2, 50 μg of pS354 S17K; lane 3, 50 μg of unphosphorylated S17K.
# FIG. 23A, FIG. 23B and FIG. 23C. A Bcr fragment expressed in COS-1 cells inhibits the Bcr-Abl tyrosine kinase in vitro. In these studies, the Bcr fragment was expressed in COS-1 cells, then isolated by immunoprecipitation with anti-Bcr 181-194 antibody. This immune complex was isolated by binding to protein A Sepharose beads; these immune complexes were added to protein A Sepharose beads containing P185 BCR-ABL harvested from SUP B15 leukemic cells with anti-Abl 51-64. The autokinase reaction was performed to measure the tyrosine kinase activity of Bcr-Abl.
# Immunokinase Assay: The immunokinase assays were performed as described by Campbell et al. (1990) with modifications. The cells are lysed by homogenizing the cell pellet in two different lysis buffers at 0° C. in a tight fitting Wheaton homogenizer (either 0.1% Triton-X100, 100 mM NaCl, 5 mM EDTA, 10 mM sodium phosphate, pH 7.2 or 1% Triton-X100, 100 mM NaCl, 0.5% sodium deoxycholate, 0.1% SDS, 5 mM EDTA, 10 mM sodium phosphate pH 7.2). Both buffers were supplemented with 30 mM sodium pyrophosphate, 100 KIU aprotinin, 1 mM benzamidine, 1 mM phenylmethylsulfonyl fluoride and 0.2 mM sodium vanadate.
# Immunoprecipitation reactions were carried out utilizing 20-40 μl of the respective anti-peptide rabbit sera or 5 μl of monoclonal antibody at 0° C. for 1 hour. Blocked immunoprecipitations refer to those immunoprecipitation reactions performed with antisera that have been preincubated with excess cognate peptide to specifically block the anti-peptide antibodies.
# The resulting antigen-antibody immunoprecipitates were collected with 30 μl of 50% protein A-Sepharose (Pharmacia, Uppsala, Sweden), pelleted and washed with RIPA buffer (0.1% Triton X-100, 0.05% SDS, 0.5% sodium deoxycholate, 100 mM NaCl in 10 mM phosphate buffer, pH 7.2), wash buffer (0.1% Triton X-100, 100 mM NaCl, in 10 mM phosphate buffer, pH 7.2) and finally with 50 mM Tris buffer, pH 7.2. […]
# casein = test: Immune complex kinase assay of mutant P160 BCR, transphosphorylation of casein; assay type: biochemical; details: mutant P160 BCR expressed in COS-1 cells
# From the text: Mutant forms of P160^BCR were expressed in COS-1 cells and tested for serine/threonine kinase activities in immune complex kinase assays.
# Using the intensities of the P160^BCR bands as an indication of the amount of active P160^BCR in the immune complex and the intensities of the casein bands as a measure of transphosphorylation activity, the transphosphorylation activity of the Y360F Bcr mutant was reduced about sevenfold, compared with that of the wild type. Similarly, the Y360F Bcr mutant was also defective in transphosphorylating another exogenous substrate, histone H1.
# The amounts of Bcr within these immune complexes were quantitated in two ways. In a first method, the amounts of Bcr mutants would be underestimated by about 10%, compared with that of the wild type. On the basis of these measurements, the specific activity of transkinase activity (casein intensity/P160^BCR intensity) of the Y360F Bcr mutant (0.03) was reduced more than 20-fold in this study, compared with that of the wild type.
# The second method of estimating the amounts of P160^BCR in immune complexes involved the Western blotting of these immune complexes with an anti-Bcr antibody. The specific activity of Y360F was reduced by about sixfold. […] By using autophosphorylation of the Bcr protein as a measure of its relative amount, the reduction of Bcr's transkinase by the Y360F mutation was about sevenfold, confirming the results obtained by the Western blot method.
# P210 BCR-ABL = target: T2, P210 BCR-ABL (Homo sapiens, UniProt P00519+P11274); test: In vivo tyrosine phosphorylation of truncated Bcr proteins in COS-1 cells, anti-pTyr Western blot; assay type: cell-based; details: COS-1 cells coexpressing p210 Bcr-Abl
# T2 construct: expressed in transfected cells; host or cells: COS-1
# From the text: FIG. 6A and FIG. 6B. In vivo tyrosine phosphorylation of truncated Bcr first exon sequences by Bcr-Abl. COS-1 vectors expressing Bcr150, Bcr221, and Bcr413 proteins, respectively, were expressed in COS-1 cells in the presence and absence of […].
# The next tyrosine is at residue 177, and it is expected to be phosphorylated by Bcr-Abl (Puil et al., 1994). Bcr221 is tyrosine phosphorylated, but as with Bcr413, only in the presence of Bcr-Abl.
# Transient transfections of COS1 cells were performed by the diethylaminoethyl (DEAE)-Dextran procedure. Transfection was initiated when COS1 cells were about 60%-80% confluent. After washing once with phosphate-buffered saline (PBS) and once with Tris-buffered Saline-0.02% Dextrose (TBS-D), cells were incubated with TBS-D containing 0.2 mg/ml DEAE-Dextran and 2 μg/ml of each added plasmid. The supernatant was then removed after 5-10 minutes when the cells started to round up and shrink.
# After washing once with TBS-D and once with PBS, the cells were incubated in DMEM supplemented with 10% fetal calf serum and 100 μg/ml of chloroquine at 37° C. The chloroquine containing media was removed after 3-5 hours and the cells were washed three times with DMEM without fetal calf serum. The cells were then incubated in DMEM supplemented with 10% fetal calf serum at 37° C. for 2-3 days before harvesting.
# COS-1 vectors expressing Bcr159, Bcr221, and Bcr413 proteins, respectively, were expressed in COS-1 cells in the presence and absence of p210 Bcr-Abl.
# T1 sequence (P11274+P00519 fused): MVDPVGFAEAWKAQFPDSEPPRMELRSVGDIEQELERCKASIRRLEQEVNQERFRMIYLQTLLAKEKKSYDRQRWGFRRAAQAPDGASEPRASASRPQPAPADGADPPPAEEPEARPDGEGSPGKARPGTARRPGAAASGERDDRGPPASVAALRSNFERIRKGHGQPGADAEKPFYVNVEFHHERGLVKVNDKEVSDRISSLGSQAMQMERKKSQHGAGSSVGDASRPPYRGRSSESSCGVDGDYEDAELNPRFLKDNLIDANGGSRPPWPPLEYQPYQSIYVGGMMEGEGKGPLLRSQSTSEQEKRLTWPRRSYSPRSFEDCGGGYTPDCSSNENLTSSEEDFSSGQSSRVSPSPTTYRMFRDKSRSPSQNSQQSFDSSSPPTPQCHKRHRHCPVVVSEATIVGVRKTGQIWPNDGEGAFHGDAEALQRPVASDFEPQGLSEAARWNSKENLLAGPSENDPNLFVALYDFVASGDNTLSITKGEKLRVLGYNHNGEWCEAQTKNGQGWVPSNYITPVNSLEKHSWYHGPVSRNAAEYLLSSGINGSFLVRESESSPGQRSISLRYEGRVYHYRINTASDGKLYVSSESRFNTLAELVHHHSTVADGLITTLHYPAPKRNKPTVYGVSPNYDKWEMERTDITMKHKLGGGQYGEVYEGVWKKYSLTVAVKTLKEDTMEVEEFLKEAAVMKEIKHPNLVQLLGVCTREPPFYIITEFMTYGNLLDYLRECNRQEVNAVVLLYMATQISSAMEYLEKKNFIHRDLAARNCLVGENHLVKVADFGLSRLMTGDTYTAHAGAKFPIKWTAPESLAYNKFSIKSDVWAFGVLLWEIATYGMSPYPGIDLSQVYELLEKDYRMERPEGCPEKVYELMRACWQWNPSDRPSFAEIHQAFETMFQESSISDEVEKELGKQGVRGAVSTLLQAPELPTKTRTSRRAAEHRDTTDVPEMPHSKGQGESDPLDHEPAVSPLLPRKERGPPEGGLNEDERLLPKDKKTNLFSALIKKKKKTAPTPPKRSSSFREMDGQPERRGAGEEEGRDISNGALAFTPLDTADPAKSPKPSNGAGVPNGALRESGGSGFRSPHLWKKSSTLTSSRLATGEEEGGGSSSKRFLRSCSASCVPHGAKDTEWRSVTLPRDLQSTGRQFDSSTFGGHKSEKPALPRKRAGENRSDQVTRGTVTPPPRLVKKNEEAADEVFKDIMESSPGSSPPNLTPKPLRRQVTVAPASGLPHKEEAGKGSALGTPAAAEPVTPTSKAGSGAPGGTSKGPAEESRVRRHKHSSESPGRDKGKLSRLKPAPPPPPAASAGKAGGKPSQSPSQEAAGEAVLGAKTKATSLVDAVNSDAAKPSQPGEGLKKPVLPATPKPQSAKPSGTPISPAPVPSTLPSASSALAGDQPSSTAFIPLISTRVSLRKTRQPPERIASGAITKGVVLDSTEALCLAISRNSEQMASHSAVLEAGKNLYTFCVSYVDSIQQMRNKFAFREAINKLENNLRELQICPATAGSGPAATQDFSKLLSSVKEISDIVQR
# T2 sequence (P11274+P00519 fused): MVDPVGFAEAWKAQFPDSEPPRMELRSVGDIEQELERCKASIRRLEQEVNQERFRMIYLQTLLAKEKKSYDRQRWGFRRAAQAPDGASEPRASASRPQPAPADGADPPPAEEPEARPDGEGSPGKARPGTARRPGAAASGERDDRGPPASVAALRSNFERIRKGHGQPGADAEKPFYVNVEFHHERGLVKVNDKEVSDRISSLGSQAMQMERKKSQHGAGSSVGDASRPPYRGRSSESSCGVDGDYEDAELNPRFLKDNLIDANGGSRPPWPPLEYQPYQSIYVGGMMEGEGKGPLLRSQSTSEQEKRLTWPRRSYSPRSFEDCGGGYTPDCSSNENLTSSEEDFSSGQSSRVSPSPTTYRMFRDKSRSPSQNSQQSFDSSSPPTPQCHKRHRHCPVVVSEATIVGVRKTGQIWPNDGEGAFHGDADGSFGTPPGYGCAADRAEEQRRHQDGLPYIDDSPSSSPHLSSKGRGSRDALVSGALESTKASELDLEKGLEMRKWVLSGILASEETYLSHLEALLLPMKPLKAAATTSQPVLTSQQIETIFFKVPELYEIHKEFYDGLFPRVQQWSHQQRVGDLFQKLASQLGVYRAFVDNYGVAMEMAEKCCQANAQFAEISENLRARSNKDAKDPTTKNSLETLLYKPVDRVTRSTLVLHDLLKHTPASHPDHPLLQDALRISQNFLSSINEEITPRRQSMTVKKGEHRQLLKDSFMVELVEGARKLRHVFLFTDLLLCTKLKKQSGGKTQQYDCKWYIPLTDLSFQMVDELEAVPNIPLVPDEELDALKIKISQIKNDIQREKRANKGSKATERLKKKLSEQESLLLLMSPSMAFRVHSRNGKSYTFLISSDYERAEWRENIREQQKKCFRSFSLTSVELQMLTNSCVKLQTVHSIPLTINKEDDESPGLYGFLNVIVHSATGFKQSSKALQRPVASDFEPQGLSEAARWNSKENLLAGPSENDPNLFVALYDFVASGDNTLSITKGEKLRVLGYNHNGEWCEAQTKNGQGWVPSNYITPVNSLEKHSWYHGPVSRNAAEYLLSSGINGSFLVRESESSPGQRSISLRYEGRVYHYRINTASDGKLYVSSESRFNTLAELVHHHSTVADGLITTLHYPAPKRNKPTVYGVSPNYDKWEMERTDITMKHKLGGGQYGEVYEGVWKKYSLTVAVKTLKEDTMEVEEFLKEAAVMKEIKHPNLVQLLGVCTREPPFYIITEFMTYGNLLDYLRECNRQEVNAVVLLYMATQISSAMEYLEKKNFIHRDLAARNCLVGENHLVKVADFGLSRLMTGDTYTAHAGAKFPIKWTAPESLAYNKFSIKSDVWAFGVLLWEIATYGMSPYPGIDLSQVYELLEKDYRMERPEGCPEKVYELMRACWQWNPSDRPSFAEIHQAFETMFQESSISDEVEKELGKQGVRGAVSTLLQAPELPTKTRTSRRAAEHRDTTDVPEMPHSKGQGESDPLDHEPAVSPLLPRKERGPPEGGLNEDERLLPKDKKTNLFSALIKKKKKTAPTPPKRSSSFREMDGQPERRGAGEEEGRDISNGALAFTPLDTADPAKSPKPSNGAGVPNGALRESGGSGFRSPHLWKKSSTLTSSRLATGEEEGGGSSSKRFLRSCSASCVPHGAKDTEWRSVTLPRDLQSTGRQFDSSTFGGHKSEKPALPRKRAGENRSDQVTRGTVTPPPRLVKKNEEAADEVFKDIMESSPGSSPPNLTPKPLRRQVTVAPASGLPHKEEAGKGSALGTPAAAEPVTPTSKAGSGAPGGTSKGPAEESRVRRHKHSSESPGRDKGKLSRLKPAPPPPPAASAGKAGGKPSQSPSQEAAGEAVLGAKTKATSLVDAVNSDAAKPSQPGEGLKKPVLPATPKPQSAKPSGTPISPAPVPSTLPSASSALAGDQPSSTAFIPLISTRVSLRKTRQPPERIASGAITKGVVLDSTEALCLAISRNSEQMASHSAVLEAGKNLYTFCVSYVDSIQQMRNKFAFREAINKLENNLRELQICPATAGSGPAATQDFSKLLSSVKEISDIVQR
molecule,measurement,setting,value
350-SSRVpS*PSPTTYRMFRDK-366 (SSRV[pS]PSPTTYRMFRDK) [pS354 S17K],Inhibition of Bcr-Abl tyrosine kinase activity (autophosphorylation),P185 BCR-ABL,strongly inhibited
"unphosphorylated S17K: unphosphorylated form of Bcr peptide S17K, Bcr residues 350 to 366 (SSRVSPSPTTYRMFRDK)",Inhibition of Bcr-Abl tyrosine kinase activity (autophosphorylation),P185 BCR-ABL,little affect
B1,Inhibition of Bcr-Abl tyrosine kinase activity (P185 autokinase),P185 BCR-ABL; immune complexes on protein A Sepharose beads added to P185 BCR-ABL immunoprecipitates from SUP B15,potent inhibitor
same,Inhibitory activity towards Bcr-Abl kinase after boiling,P185 BCR-ABL; immunoprecipitate boiled for a few minutes prior to addition to the kinase assay,strongly decreased
B2,Ability to transphosphorylate casein compared with wild-type Bcr,casein,not significantly altered
B3,Tyrosine phosphorylation by Bcr-Abl in cells,P210 BCR-ABL,induces tyrosine phosphorylation
B4,Tyrosine phosphorylation by Bcr-Abl in cells,P210 BCR-ABL,induces tyrosine phosphorylation
B5,Tyrosine phosphorylation by Bcr-Abl in cells,P210 BCR-ABL,not
